# Article PMC9892032
# Where “and” joins values, the source holds several entries; their conditions need not be identical. Identical values can stand only once.
# Molecular target: Lake Sinai virus 2 capsid protein, full-length (residues 1–520) (Lake Sinai virus 2)
# Assay: cryo-EM structure; purified LSV2 VLPs (30 mg/mL) assembled in vitro in 50 mM HEPES, 300 mM NaCl at pH 6.5, 7.5 or 8.5; T = 4 and T = 3 particles from single datasets, icosahedral and focused refinement
substance,measurement,value
"Lake Sinai virus 2 capsid protein, full-length (residues 1–520) (natural protein)",stoichiometry N,240 copies and 180 copies
